Data: the supplement of paper PMC9732359
± gives the uncertainty stated by the source.

Assay: protein stability index of a GFP-peptide fusion (yeast GPS) (PSI 1-4); higher = more stable; sorted into four equal gates, so the index is relative within each strain
How it was run: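 The protein stability index of a peptide was calculated by multiplying its read frequency in each gate by that gate's number and adding the products. The peptides were tiled 17-residue stretches of yeast proteins, fused downstream of GFP on a Cherry-expressing plasmid and carried in yeast as a pooled library. Mid-log cultures in leucine-free medium were sorted into four equal gates by GFP/Cherry ratio, and each gate's plasmids were PCR-amplified and Illumina-sequenced.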

## SVPEGTIVSNVEEKPGD [RPL2A]
doa10∆
  protein stability index: 3.23 ± 0.1
pdr5∆
  protein stability index: 3.02 ± 0.082
san1∆
  protein stability index: 3.39 ± 0.059
ubr1∆
  protein stability index: 3.39 ± 0.11

## CSHCGCVYVPNFNASLQ [SNM1]
doa10∆
  protein stability index: 3.36 ± 0.11
pdr5∆
  protein stability index: 2.42 ± 0.11
san1∆
  protein stability index: 3.13 ± 0.16
ubr1∆
  protein stability index: 1.51 ± 0.1

## WRKDAQGNYPTTSYIKE [DPB4]
doa10∆
  protein stability index: 2.94 ± 0.092
pdr5∆
  protein stability index: 2.88 ± 0.069
san1∆
  protein stability index: 2.92 ± 0.069
ubr1∆
  protein stability index: 2.56 ± 0.064

## HEYIRHLALEIGEVYND [RPN1]
doa10∆
  protein stability index: 2.29 ± 0.065
pdr5∆
  protein stability index: 2.09 ± 0.067
san1∆
  protein stability index: 2.49 ± 0.11
ubr1∆
  protein stability index: 1.54 ± 0.077

## SVINVSAQRDRRYRKRV [RPS17A]
doa10∆
  protein stability index: 2.34 ± 0.06
pdr5∆
  protein stability index: 2.06 ± 0.063
san1∆
  protein stability index: 1.71 ± 0.1
ubr1∆
  protein stability index: 2.06 ± 0.08

## PPPYVKFFTQSNLEKLP [MED7]
doa10∆
  protein stability index: 2.25 ± 0.036
pdr5∆
  protein stability index: 2.29 ± 0.04
san1∆
  protein stability index: 2.41 ± 0.049
ubr1∆
  protein stability index: 2.49 ± 0.027

## TIDWVEAGLQLCRQGHN [PRP8]
doa10∆
  protein stability index: 2.08 ± 0.18
pdr5∆
  protein stability index: 2.77 ± 0.1
san1∆
  protein stability index: 2.08 ± 0.091
ubr1∆
  protein stability index: 2.26 ± 0.085

## IGVVSLTNGVTEHVRQN [RRP6]
doa10∆
  protein stability index: 3.29 ± 0.14
pdr5∆
  protein stability index: 3.42 ± 0.11
san1∆
  protein stability index: 3.32 ± 0.099
ubr1∆
  protein stability index: 3.33 ± 0.063

## TSQNPQRDAEISQPKSM [BRR2]
doa10∆
  protein stability index: 3.27 ± 0.11
pdr5∆
  protein stability index: 3.04 ± 0.27
san1∆
  protein stability index: 3.11 ± 0.13
ubr1∆
  protein stability index: 2.88 ± 0.11

## GADVTNTTQDNGGDKEL [YCS4]
doa10∆
  protein stability index: 3.18 ± 0.12
pdr5∆
  protein stability index: 3.19 ± 0.083
san1∆
  protein stability index: 3.1 ± 0.065
ubr1∆
  protein stability index: 3.26 ± 0.074

## TISSLFVQLCEMGYLIQ [RPC82]
doa10∆
  protein stability index: 1.85 ± 0.061
pdr5∆
  protein stability index: 1.69 ± 0.078
san1∆
  protein stability index: 1.61 ± 0.16
ubr1∆
  protein stability index: 2.39 ± 0.081

## EFIAHRLGLIPLQSMDI [RPB3]
doa10∆
  protein stability index: 2.69 ± 0.13
pdr5∆
  protein stability index: 2.04 ± 0.17
san1∆
  protein stability index: 1.92 ± 0.23

## IVNVLSKCLNLISDSNI [SWI3]
doa10∆
  protein stability index: 2.05 ± 0.043
pdr5∆
  protein stability index: 1.77 ± 0.038
san1∆
  protein stability index: 1.65 ± 0.073
ubr1∆
  protein stability index: 2 ± 0.029

## SLSKISQAFDIVAALPI [RPP1]
doa10∆
  protein stability index: 3.18 ± 0.12
pdr5∆
  protein stability index: 3.46 ± 0.15
san1∆
  protein stability index: 2.97 ± 0.13

## NDEPSHKKIKVAQPDSL [SIR2]
doa10∆
  protein stability index: 2.32 ± 0.079
pdr5∆
  protein stability index: 2.31 ± 0.071
san1∆
  protein stability index: 1.63 ± 0.1
ubr1∆
  protein stability index: 3.19 ± 0.055

## EARFDVLITSYEMVIRE [ISW2]
doa10∆
  protein stability index: 1.87 ± 0.094
pdr5∆
  protein stability index: 1.49 ± 0.089
san1∆
  protein stability index: 1.88 ± 0.11
ubr1∆
  protein stability index: 2.02 ± 0.11

## TFIKDCLFTKCLEDPEK [POP4]
doa10∆
  protein stability index: 1.57 ± 0.11
pdr5∆
  protein stability index: 1.78 ± 0.091
san1∆
  protein stability index: 1.57 ± 0.18
ubr1∆
  protein stability index: 1.83 ± 0.061

## HAKRKTVTSLDVVYALK [HHF1]
doa10∆
  protein stability index: 3.54 ± 0.18
pdr5∆
  protein stability index: 3.57 ± 0.14
san1∆
  protein stability index: 3.19 ± 0.084
ubr1∆
  protein stability index: 3.12 ± 0.12

## IRNINVQDALLTNQLYK [SNF2]
doa10∆
  protein stability index: 2.84 ± 0.07
pdr5∆
  protein stability index: 2.67 ± 0.064
san1∆
  protein stability index: 3.12 ± 0.05
ubr1∆
  protein stability index: 3.24 ± 0.075

## KRKWSYVLYAKIVVLSR [RRP43]
doa10∆
  protein stability index: 1.82 ± 0.06
pdr5∆
  protein stability index: 2.36 ± 0.064
san1∆
  protein stability index: 1.87 ± 0.11
ubr1∆
  protein stability index: 2.21 ± 0.056

## RVKAMEVDEKPTETYSD [RPT5]
doa10∆
  protein stability index: 3.46 ± 0.1
pdr5∆
  protein stability index: 3.32 ± 0.075
san1∆
  protein stability index: 3.1 ± 0.074
ubr1∆
  protein stability index: 3.12 ± 0.077

## HTIFSDVCKTRFNHLVT [YML031W/NDC1]
doa10∆
  protein stability index: 2.27 ± 0.045
pdr5∆
  protein stability index: 2.09 ± 0.044
san1∆
  protein stability index: 2.15 ± 0.051
ubr1∆
  protein stability index: 2.04 ± 0.034

## INYHQYISKAQNDQWSI [SSN2]
doa10∆
  protein stability index: 2.63 ± 0.058
pdr5∆
  protein stability index: 2.83 ± 0.053
san1∆
  protein stability index: 2.56 ± 0.051
ubr1∆
  protein stability index: 2.73 ± 0.056

## GCGTVKRFNIGADPNYR [RPR2]
doa10∆
  protein stability index: 3.15 ± 0.12
pdr5∆
  protein stability index: 3.36 ± 0.092
san1∆
  protein stability index: 3.33 ± 0.09
ubr1∆
  protein stability index: 3.46 ± 0.068

## DVKLLNPIDIKRRFGEL [RPP1]
doa10∆
  protein stability index: 2.46 ± 0.089
pdr5∆
  protein stability index: 2.7 ± 0.078
san1∆
  protein stability index: 2.38 ± 0.14
ubr1∆
  protein stability index: 2.97 ± 0.047

## LVILKPDLNIDRNNSTN [SIN4]
doa10∆
  protein stability index: 2.73 ± 0.057
pdr5∆
  protein stability index: 2.23 ± 0.064
san1∆
  protein stability index: 2.56 ± 0.065
ubr1∆
  protein stability index: 2.67 ± 0.041

## VEGISEVQARKSKSVSF [RPT5]
doa10∆
  protein stability index: 3.41 ± 0.068
pdr5∆
  protein stability index: 3.49 ± 0.11
san1∆
  protein stability index: 3.41 ± 0.068
ubr1∆
  protein stability index: 3.3 ± 0.069

## EKSRISERDSKDRYING [YMR129W/POM152]
doa10∆
  protein stability index: 3.01 ± 0.09
pdr5∆
  protein stability index: 3.08 ± 0.062
san1∆
  protein stability index: 3.04 ± 0.066
ubr1∆
  protein stability index: 2.54 ± 0.05

## TKIPQIGDKFASRHGQK [RPB2]
doa10∆
  protein stability index: 1.57 ± 0.073
pdr5∆
  protein stability index: 2.3 ± 0.07
san1∆
  protein stability index: 2.77 ± 0.084
ubr1∆
  protein stability index: 1.83 ± 0.039

## VKKTGENEISSLLAMHK [CDC53]
doa10∆
  protein stability index: 2.75 ± 0.3
pdr5∆
  protein stability index: 2.54 ± 0.12
san1∆
  protein stability index: 2.05 ± 0.3
ubr1∆
  protein stability index: 2.87 ± 0.25

## ANETDKRPTPPSFTFGG [YOR098C/NUP1]
doa10∆
  protein stability index: 3.01 ± 0.042
pdr5∆
  protein stability index: 3.18 ± 0.047
san1∆
  protein stability index: 2.96 ± 0.037
ubr1∆
  protein stability index: 3.1 ± 0.033

## MDYHFIFSYLQFTSSLF [RGR1]
doa10∆
  protein stability index: 2.08 ± 0.046
pdr5∆
  protein stability index: 1.39 ± 0.043
san1∆
  protein stability index: 1.25 ± 0.076
ubr1∆
  protein stability index: 1.21 ± 0.047

## THSYNFMRQNLEWNMAN [RPC82]
doa10∆
  protein stability index: 2.45 ± 0.064
pdr5∆
  protein stability index: 1.75 ± 0.057
san1∆
  protein stability index: 1.74 ± 0.07
ubr1∆
  protein stability index: 2.24 ± 0.048

## IYRDRSTFTKHLIKCFF [ITC1]
doa10∆
  protein stability index: 2.11 ± 0.043
pdr5∆
  protein stability index: 1.68 ± 0.038
san1∆
  protein stability index: 2.21 ± 0.046
ubr1∆
  protein stability index: 2.26 ± 0.031

## SIWGNGYSGYGNGITNT [SNF5]
doa10∆
  protein stability index: 3.26 ± 0.1
pdr5∆
  protein stability index: 3.4 ± 0.12
san1∆
  protein stability index: 3.35 ± 0.084
ubr1∆
  protein stability index: 3.34 ± 0.051

## MINGRKLIKFETRNEDD [FAS1]
doa10∆
  protein stability index: 2.9 ± 0.071
pdr5∆
  protein stability index: 2.81 ± 0.068
san1∆
  protein stability index: 3.07 ± 0.047
ubr1∆
  protein stability index: 2.81 ± 0.044

## KASELKLALGIALEGYR [RPN2]
doa10∆
  protein stability index: 2.62 ± 0.15
pdr5∆
  protein stability index: 2.28 ± 0.18
ubr1∆
  protein stability index: 2.56 ± 0.097

## TEGHKGHEELKRRIEEE [ISW2]
doa10∆
  protein stability index: 3.33 ± 0.085
pdr5∆
  protein stability index: 3.42 ± 0.09
san1∆
  protein stability index: 3.11 ± 0.068
ubr1∆
  protein stability index: 3.23 ± 0.065

## QYTQRLSKLEKALDRHE [SRP68]
doa10∆
  protein stability index: 2.52 ± 0.046
pdr5∆
  protein stability index: 2.65 ± 0.035
san1∆
  protein stability index: 2.72 ± 0.039
ubr1∆
  protein stability index: 2.66 ± 0.037

## PLDRLENVLAIGIAGAH [SKI6]
doa10∆
  protein stability index: 1.26 ± 0.085
pdr5∆
  protein stability index: 1.78 ± 0.092
san1∆
  protein stability index: 1.54 ± 0.18
ubr1∆
  protein stability index: 1.85 ± 0.12

## PAKPALSFGTATSDNKT [YJL041W/NSP1]
doa10∆
  protein stability index: 3.05 ± 0.09
pdr5∆
  protein stability index: 3.12 ± 0.072
san1∆
  protein stability index: 2.93 ± 0.097
ubr1∆
  protein stability index: 3.08 ± 0.048

## NHLDELQKKFVTKQSEL [SMC1]
doa10∆
  protein stability index: 2.59 ± 0.11
pdr5∆
  protein stability index: 3.06 ± 0.14
san1∆
  protein stability index: 2.35 ± 0.21
ubr1∆
  protein stability index: 2.72 ± 0.075

## VSADDFVEEQNVYVLPK [PRP8]
doa10∆
  protein stability index: 3.44 ± 0.099
pdr5∆
  protein stability index: 3.18 ± 0.11
san1∆
  protein stability index: 3.07 ± 0.12
ubr1∆
  protein stability index: 3.32 ± 0.083

## IAEGKSKQDASPKPYAV [RPL8B]
doa10∆
  protein stability index: 3.02 ± 0.077
pdr5∆
  protein stability index: 3.38 ± 0.063
san1∆
  protein stability index: 3.12 ± 0.06
ubr1∆
  protein stability index: 3.23 ± 0.049

## ADCQAELTKTKSSLYSA [YIL149C/MLP2]
doa10∆
  protein stability index: 2.6 ± 0.055
pdr5∆
  protein stability index: 2.59 ± 0.055
san1∆
  protein stability index: 2.46 ± 0.069
ubr1∆
  protein stability index: 2.23 ± 0.045

## NFALTTLIDLVKHSPGA [ECM29]
doa10∆
  protein stability index: 1.61 ± 0.11
pdr5∆
  protein stability index: 1.79 ± 0.071
san1∆
  protein stability index: 1.49 ± 0.15
ubr1∆
  protein stability index: 2.13 ± 0.062

## SLSDEVMRNEIRITSLQ [SIR4]
doa10∆
  protein stability index: 2.92 ± 0.065
pdr5∆
  protein stability index: 2.48 ± 0.064
san1∆
  protein stability index: 2.81 ± 0.067
ubr1∆
  protein stability index: 2.52 ± 0.077

## HTVTNSPNPTLQPVIPG [SNF5]
doa10∆
  protein stability index: 2.55 ± 0.052
pdr5∆
  protein stability index: 2.32 ± 0.049
san1∆
  protein stability index: 2.53 ± 0.052
ubr1∆
  protein stability index: 2.78 ± 0.042

## QGNYVTEDIREGDQAEV [YMR129W/POM152]
doa10∆
  protein stability index: 3.49 ± 0.086
pdr5∆
  protein stability index: 3.32 ± 0.073
san1∆
  protein stability index: 3.3 ± 0.066
ubr1∆
  protein stability index: 3.39 ± 0.083

## TDLGKDIPFFPSSEKPN [SSN2]
doa10∆
  protein stability index: 2.7 ± 0.059
pdr5∆
  protein stability index: 2.9 ± 0.077
san1∆
  protein stability index: 2.57 ± 0.11
ubr1∆
  protein stability index: 3.07 ± 0.037

## TIFKSGEIDFIKNIGKS [YML103C/NUP188]
doa10∆
  protein stability index: 1.64 ± 0.069
pdr5∆
  protein stability index: 2.37 ± 0.061
san1∆
  protein stability index: 1.92 ± 0.12
ubr1∆
  protein stability index: 2.51 ± 0.073
